Assay results published in PMC6393540, “A dual role in regulation and toxicity for the disordered N-terminus of the toxin GraT”.

Molecular target: Δ22GraT in Δ22GraT2A2 complex;GraA-His in Δ22GraT2A2 complex (Pseudomonas putida;Pseudomonas putida, UniProt Q88MI5;Q88MI6 23-92;1-99, del2-22|)
Assay: ITC; macroscopic; ITC: 50 mM Tris pH 8.0, 250 mM NaCl, 2 mM β-mercaptoethanol (TCEP in purification for ITC), 25 °C; EMSA: 5 µM DNA, 30 min at room temperature, 6% native PAGE in TBE on ice
Settings: protein: recombinant;recombinant; tags: ;C-terminal His6; chain copies: 2;2

B1: graTA operator wild type 33 bp (dsDNA)
DNA 1: AAATTAACGAATAACGTTAAGCATTCAGCTCAT
DNA 2: ATGAGCTGAATGCTTAACGTTATTCGTTAATTT
  Ka: 2.3e+15 M^-2
